The values below come from IntAct's records for PubMed 17318191.

B1: Catenin beta-1 (Homo sapiens), P35222 (parent)
chain: MATQADLMELDMAMEPDRKAAVSHWQQQSYLDSGIHSGATTTAPSLSGKGNPEEEDVDTSQVLYEWEQGFSQSFTQEQVADIDGQYAMTRAQRVRAAMFPETLDEGMQIPSTQFDAAHPTNVQRLAEPSQMLKHAVVNLINYQDDAELATRAIPELTKLLNDEDQVVVNKAAVMVHQLSKKEASRHAIMRSPQMVSAIVRTMQNTNDVETARCTAGTLHNLSHHREGLLAIFKSGGIPALVKMLGSPVDSVLFYAITTLHNLLLHQEGAKMAVRLAGGLQKMVALLNKTNVKFLAITTDCLQILAYGNQESKLIILASGGPQALVNIMRTYTYEKLLWTTSRVLKVLSVCSSNKPAIVEAGGMQALGLHLTDPSQRLVQNCLWTLRNLSDAATKQEGMEGLLGTLVQLLGSDDINVVTCAAGILSNLTCNNYKNKMMVCQVGGIEALVRTVLRAGDREDITEPAICALRHLTSRHQEAEMAQNAVRLHYGLPVVVKLLHPPSHWPLIKATVGLIRNLALCPANHAPLREQGAIPRLVQLLVRAHQDTQRRTSMGGTQQQFVEGVRMEEIVEGCTGALHILARDVHNRIVIRGLNTIPLFVQLLYSPIENIQRVAAGVLCELAQDKEAAEAIEAEGATAPLTELLHSRNEGVATYAAAVLFRMSEDKPQDYKKRLSVELTSSLFRTEPMAWNETADLGLDIGAQGEPLGYRQDDPSYRSFHSGGYGQDALGMDPMMEHEMGGHHPGADYPVDGLPDLGHAQDLMDGLPPGDSNQLAWFDTDL

Variants of B1 are the subject of this test. The following applies: with axin1_human AXIN1, O15169.
axin1_human AXIN1, O15169, sequence (O15169 whole entry): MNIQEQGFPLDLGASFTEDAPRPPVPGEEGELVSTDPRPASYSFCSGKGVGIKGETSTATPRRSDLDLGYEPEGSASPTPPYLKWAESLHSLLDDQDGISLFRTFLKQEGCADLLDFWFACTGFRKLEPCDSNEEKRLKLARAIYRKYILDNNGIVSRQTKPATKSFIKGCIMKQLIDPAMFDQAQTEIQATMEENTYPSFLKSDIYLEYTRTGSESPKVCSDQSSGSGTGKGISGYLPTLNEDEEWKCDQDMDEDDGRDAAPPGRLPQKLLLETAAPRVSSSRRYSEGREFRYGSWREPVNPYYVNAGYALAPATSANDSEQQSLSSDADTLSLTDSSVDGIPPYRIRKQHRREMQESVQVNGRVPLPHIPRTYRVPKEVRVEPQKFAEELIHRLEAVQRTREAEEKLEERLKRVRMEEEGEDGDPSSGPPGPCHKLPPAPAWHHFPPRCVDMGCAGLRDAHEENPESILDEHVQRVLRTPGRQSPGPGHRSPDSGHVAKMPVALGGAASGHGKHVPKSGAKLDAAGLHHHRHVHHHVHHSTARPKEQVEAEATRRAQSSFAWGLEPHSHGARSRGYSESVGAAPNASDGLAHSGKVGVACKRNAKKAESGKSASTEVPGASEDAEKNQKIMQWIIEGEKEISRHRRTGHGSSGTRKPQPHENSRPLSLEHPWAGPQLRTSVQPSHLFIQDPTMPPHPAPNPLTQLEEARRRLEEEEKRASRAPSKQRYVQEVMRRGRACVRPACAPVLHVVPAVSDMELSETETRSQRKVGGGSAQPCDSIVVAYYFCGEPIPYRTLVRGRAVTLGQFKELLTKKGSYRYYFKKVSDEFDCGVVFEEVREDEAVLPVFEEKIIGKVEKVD
For the variant Y654F, the “effect of a mutation on the interaction” value is “decreasing interaction”.

In the case of Y142F, the “effect of a mutation on the interaction” value is “disrupting interaction”.
